Residue numbers refer to the chain shown, from its start.
What was measured:
Experiment in all cases: cell_activity; yeast 37 C; 28 C: 4
Settings in all cases: tags: NLS, 6xHis
[1] = target: T1, ZM6.3(H6) (artificial)
T1 chain: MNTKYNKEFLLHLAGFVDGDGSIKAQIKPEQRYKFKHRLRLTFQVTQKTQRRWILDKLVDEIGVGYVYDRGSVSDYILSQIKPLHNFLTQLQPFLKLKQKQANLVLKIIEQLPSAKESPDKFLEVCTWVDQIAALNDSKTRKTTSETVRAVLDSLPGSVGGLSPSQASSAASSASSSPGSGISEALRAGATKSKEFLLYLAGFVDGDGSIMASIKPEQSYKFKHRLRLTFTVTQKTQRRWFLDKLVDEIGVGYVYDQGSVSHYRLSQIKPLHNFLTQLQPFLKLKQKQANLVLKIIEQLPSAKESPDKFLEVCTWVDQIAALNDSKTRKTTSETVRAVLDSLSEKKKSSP
Procedure: (§1) A 3 mL culture of selective media (MP Biomedical) was inoculated with a single colony of the yeast screening strain and grown at 30° C. overnight. On the following day, a 50 ml YPD culture (MP Biomedical) was started with 2 ml of the overnight culture and grown at 30° C. overnight. On the following day, the cells were harvested by centrifugation at 4000 rpm. The cells were resuspended in 100 ml ice cold water and centrifuged again. The cells were then washed in 1.2 M sorbitol, followed by treatment with 2 ml of 10 mM Tris pH 8.0, 1 mM EDTA, 100 mM Lithium acetate, 10 mM DTT, 0.6M sorbitol for 30 minutes at 30° C. with shaking. The cells were recovered by centrifugation, washed in 40 ml 1.2M sorbitol and finally resuspended in 250 microliters of 1.2M sorbitol. 50 microliter aliquots were transferred to test tubes on ice. Up to 5 microliters of DNA (100-500 nanograms) were added. The suspension was transferred to a 0.2 cm electroporation cuvette, on ice. Electroporation was performed with a pulse charge at 1.5 kV, 200 ohms, 25 microF (pulse time of 5 milliseconds). 1 mL YPD media (MP Biomedical) was added and the cells were allowed to recover at 30° C. for 1-2 hr. The cells were centrifuged, resuspended in 100 uL 1M sorbitol and plated on selective media lacking leucine and containing 2% galactose. The resulting yeast colonies were incubated at various temperatures ranging from 22 to 37 degrees Celsius for 7-10 days. I-CreI and meganucleases derived from it have maximal activity at or above 37 degrees Celsius. Screening was performed at a range of temperatures from 22 to 37 degrees in order to observe increases in activity at lower temperatures which are relevant to certain biological systems (eg. plant cells, plant cell cultures, etc). At that time the red/white sectoring phenotype, indicative of meganuclease activity was observed. Colonies with increased white sectoring over the parental meganuclease (indicating colonies expressing a meganuclease with increased meganuclease activity), also referred to as “hits” and sometimes completely white, were isolated for further analysis.
(§2) A total of 15 Zm6.3 variants with increased activity were confirmed in the yeast system (as described in Example 6). Increased activity was observed across a range of temperatures: 28 degrees Celsius, 30 degrees Celsius and 37 degrees Celsius, as shown in Table 15.

[2] = target: T2, ZM6.3(H5) (artificial)
T2 chain: T1 chain with R32S, V105A, E124R
Procedure: as §1, §2

[3] = target: T3, ZM6.3(H1) (artificial)
T3 chain: T1 chain with K24M, I54F, E124R, V129A, F241I, E311R
Procedure: as §1, §2

[4] = target: T4, ZM6.3(G6) (artificial)
T4 chain: T1 chain with H12Y, R32S, K57E, V105A, E124R, Q237R
Procedure: as §1, §2

[5] = target: T5, ZM6.3(G1) (artificial)
T5 chain: T1 chain with H12Y, Q50R, Q80R
Procedure: as §1, §2

Measured: activity

B1: ZM6.3 recognition site (dsDNA)
DNA 1: CAGGCTCTCGTAAATGCGCCTG
DNA 2: CAGGCGCATTTACGAGAGCCTG
4 score 0-4: [1] | [2] | [3] | [4] | [5]
